{
  "source": "patent US6884879",
  "binders": {"B1": {"name": "F(ab)-4 (Fab, V domains shown)", "VH": "EVQLVESGGGLVQPGGSLRLSCAASGYTFTNYGMNWVRQAPGKGLEWVGWINTYTGEPTYAADFKRRFTISLDTSKNTLYLQMNSLRAEDTAVYYCARYPHYYGSSHWYFDVWGQGTLVTVSS", "VL": "DIQMTQSPSSLSASVGDRVTITCSASQDISNYLNWYQQKPGKAPKLLIYFTSSLHSGVPSRFSGSGSGTDFTLTISSLQPEDFATYYCQQYSTVPWTFGQGTKVEIK", "notes": "F(ab)-1 with ArgH71Leu and AsnH73Thr; human CL and CH1"}, "B2": {"name": "hu2.10 (Fab, V domains shown)", "VH": "B1 VH with V37I, K76A, N77S, L79V, R98K", "VL": "B1 VL with F71Y", "notes": "Phage-selected consensus clone, tested as soluble Fab; also called consensus clone hu2.10"}, "B3": {"name": "F(ab)-3 (Fab, V domains shown)", "VH": "EIQLVQSGPELKQPGETVRISCKASGYTFTNYGMNWVKQAPGKGLKWMGWINTYTGEPTYAADFKRRFTFSLETSASTAYLQISNLKNDDTATYFCAKYPHYYGSSHWYFDVWGAGTTVTVSS", "VL": "B1 VL"}, "B4": {"name": "hu2.10V (Fab, V domains shown)", "VH": "B1 VH with V37I, K76A, N77S, L79V, R98K", "VL": "B1 VL with L46V, F71Y", "notes": "hu2.10 with Leu to Val at VL 46; soluble Fab"}, "B5": {"name": "chimeric IgG1 (antibody, V domains shown)", "VH": "B3 VH", "VL": "DIQMTQTTSSLSASLGDRVIISCSASQDISNYLNWYQQKPDGTVKVLIYFTSSLHSGVPSRFSGSGSGTDYSLTISNLEPEDIATYYCQQYSTVPWTFGGGTKLEIKR", "notes": "Murine A4.6.1 VL and VH fused to human kappa CL and human IgG1 heavy chain constant domains; also called chIgG1; chlgG1"}, "B6": {"name": "muMAb VEGF A.4.6.1 (antibody, V domains shown)", "VH": "B3 VH", "VL": "B5 VL", "notes": "Original murine IgG1 purified from ascites; also called murIgG1; murlgG1"}, "B7": {"name": "Y0313-1 (Fab, V domains shown)", "VH": "EVQLVESGGGLVQPGGSLRLSCAASGYDFTHYGMNWVRQAPGKGLEWVGWINTYTGEPTYAADFKRRFTFSLDTSKSTAYLQMNSLRAEDTAVYYCAKYPYYYGTSHWYFDVWGQGTL", "VL": "DIQLTQSPSSLSASVGDRVTITCRANEQLSNYLNWYQQKPGKAPKVLIYFTSSLHSGVPSRFSGSGSGTDFTLTISSLQPEDFATYYCQQYSTVPWTFGQGTKVEIKR"}},
  "key": {"[1]": {"target": "T1, VEGF (human, UniProt P15692-4 27-191, limits assumed)", "T1 construct": "also called human VEGF; biotinylated VEGF", "assay": "competition ELISA (VEGF/KDR-IgG)", "experimental": "(§1) Diluted conditioned medium containing 3 ng/ml of KDR-IgG (Park et al., J. Biol. Chem. 269:25646–[…] (1994)) in blocking buffer were incubated on the plate for 1 h. […] The solutions from the tubes were then transferred to the ELISA plates and incubated for 1 h. […] Titration curves were fit with a four-parameter nonlinear regression curve-fitting program (KaleidaGraph, Synergy Software, Reading Pa.). […] Assays for full-length IgG were the same as for the F(ab)s except that the assay buffer contained 10% human serum."}, "[2]": {"target": "T1, VEGF", "assay": "competition ELISA: biotinylated VEGF preincubated with F(ab), capture on KDR-IgG", "experimental": "as §1"}, "[3]": {"target": "T2, VEGF121 (human, UniProt P15692-9 27-147)", "T2 construct": "also called Purified VEGF121", "T2 sequence (looked up)": "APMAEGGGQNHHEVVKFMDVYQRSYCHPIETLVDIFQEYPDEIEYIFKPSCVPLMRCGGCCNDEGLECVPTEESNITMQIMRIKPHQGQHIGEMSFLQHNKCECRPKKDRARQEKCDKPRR", "assay": "BIAcore SPR, VEGF121 immobilized, Fab in solution", "experimental": "(§2) Binding of humanized A4.6.1 Fab variants was measured by flowing solutions of Fab in PBS/0.05% TWEEN 20™ over the chip at a flow rate of 20 μL/min. Following each binding measurement, residual Fab was stripped from the immobilized ligand by washing with 5 μL of 50 mM aqueous HCl at 3 μL/min. Binding profiles were analyzed by nonlinear regression using a simple monovalent binding model (BIAevaluation software v2.0; Pharmacia)."}, "[4]": {"target": "T2, VEGF121", "assay": "BIAcore SPR, VEGF121 immobilized", "experimental": "as §2"}, "[5]": {"target": "T1, VEGF", "assay": "competition ELISA: biotinylated VEGF preincubated with IgG, capture on KDR-IgG, 10% human serum", "experimental": "as §1\n[c]murIgG1 is muMAbVEGF A461 purified from ascites."}, "[6]": {"target": "rhVEGF165 (human, UniProt P15692 27-191, limits assumed)", "assay": "cell-based or functional assay"}},
  "note": "Residue numbers refer to the chain shown, from its start.",
  "data": [
    {"binder": "B1", "values": [
      {"measurement": "fold improvement of binding against F(ab)-1", "setting": "[1]", "value": 4, "unit": "fold"},
      {"measurement": "EC50 F(ab)-X / EC50 chimeric F(ab)", "setting": "[2]", "value": "> 295", "unit": "ratio"}
    ]},
    {"binder": "B2", "values": [
      {"measurement": "KD(A4.6.1)/KD(mut) as headed; fold weaker than the A4.6.1 chimera", "setting": "[3]", "value": 35, "unit": "ratio"}
    ]},
    {"binder": "B3", "values": [
      {"measurement": "EC50 F(ab)-X / EC50 chimeric F(ab)", "setting": "[2]", "value": 2.6, "unit": "ratio"}
    ]},
    {"binder": "B4", "values": [
      {"measurement": "fold improvement of KD against hu2.10", "setting": "[4]", "value": 6, "unit": "fold"},
      {"measurement": "KD(A4.6.1)/KD(mut) as headed; fold weaker than the A4.6.1 chimera", "setting": "[3]", "value": 5.8, "unit": "ratio"}
    ]},
    {"binder": "B5", "values": [
      {"measurement": "IgG1/chlgG1 (ratio of EC50)", "setting": "[5]", "value": 1, "unit": "ratio"}
    ]},
    {"binder": "B6", "values": [
      {"measurement": "IgG1/chlgG1 (ratio of EC50)", "setting": "[5]", "value": 0.759, "unit": "ratio"}
    ]},
    {"binder": "B7", "values": [
      {"measurement": "potency in the HuVEC assay against the wild-type Fab (Y0192)", "setting": "[6]", "value": 30, "unit": "fold"}
    ]}
  ]
}
